# Assay results published in patent JP2000236884A.
# B1: scFv peptide with His6 of Example 2-2, encoded by pEscFv#125-2H.HT (SEQ ID NO 10) (scFv)
# scFv: EIQLQQSGPELVKPGASVKVSCKASGYSFTDYFIYWVKQSHGKSLEWIGDIDPYNGDTSYNQKFRDKATLTVDQSSTTAFMHLNSLTSEDSAVYFCARGLRFWGQGTLVTVSAGGGGGGSGGGGSGGGGSDIQMTQSPSSLSASLGERVSLTCRASQDIGSKLYWLQQEPDGTFKRLIYATSSLDSGVPKRFSGSRSGSDYSLTISSLESEDFVDYYCLQYASSPYTFGGGTKLAIKHHHHHH
# Target: ヒトIL−18 (human interleukin-18, polypeptide having the amino acid sequence of SEQ ID NO 21) (human), Q14116
# Experiment: cell-based or functional assay
# Conditions: scale: fold molar concentration against #125-2HmAb
binder,measurement,value
B1,molar concentration needed for the same IL-18 neutralisation as #125-2HmAb (IFN-γ induction in KG-1 cells),2
